{
  "source": "patent US20220175942A1",
  "about": "(published 2022)",
  "binders": {"B1": {"name": "P943_IXORI (other)", "chain": "RSKQPTASQSSKNSIKAEFCDTNCTQGTNGAWSGCSEGCFCVHVGNNTKGRCMKLSSDYDYTTQ"}, "B2": {"name": "P1243_AMBAM (other)", "chain": "RNHTEDNSTEYYDYEEARCACPARHLNNTNGTVLKLLGCHYFCNGTLCTAPDGYPCYNLTAQQVRTLTTYPNTSCAVGVCMKGTCVKNGTMEQCFKTP"}, "B3": {"name": "CCL3_HUMAN (ligand)", "chain": "SLAADTPTACCFSYTSRQIPQNFIADYFETSSQCSKPGVIFLTKRSRQVCADPSEEWVQKYVSDLELSA"}, "B4": {"name": "P1156_IXORI (other)", "chain": "ADDDNELFTVQYCGMNCTKDEGGTWTGCTGKKEGCKCYHESGKNYGLCLSTEYTDFSQYGNPSDSEIEAAKPKRSDTLSH"}, "B5": {"name": "CCL18_HUMAN (ligand)", "chain": "AQVGTNKELCCLVYTSWQIPQKFIVDYSETSPQCPKPGVILLTKRGRQICADPNKKWVQKYISDLKLNA"}, "B6": {"name": "P991_AMBCA (other)", "chain": "ENGEGTTQPDYDNSTDYYNYEDFKCTCPAPHLNNTNGTVMKPIGCYYTCNVTRCTAPDTYPCYNLTEHQAKNLTTSPTTLCAVGNCDHGICVPNGTKELCFKAPNLEE"}, "B7": {"name": "CCL22_HUMAN (ligand)", "chain": "GPYGANMEDSVCCRDYVRYRLPLRVVKHFYWTSDSCPRPGVVLLTFRDKEICADPRVPWVKMILNKLSQ"}, "B8": {"name": "CCL25_HUMAN (ligand)", "chain": "QGVFEDCCLAYHYPIGWAVLRRAWTYRIQEVSGSCNLPAAIFYLPKRHRKVCGNPKSREVQRAMKLLDARNKVFAKLHHNTQTFQAGPHAVKKLSSGNSKLSSSKFSNPISSSKRNVSLLISANSGL"}},
  "key": {"CXCL3_HUMAN [1]": {"target": "CXCL3_HUMAN", "assay": "BLI"}, "CXCL1_HUMAN [2]": {"target": "CXCL1_HUMAN", "assay": "BLI"}, "CCL14_HUMAN": {"target": "CCL14_HUMAN", "assay": "BLI"}, "CCL7_HUMAN": {"target": "CCL7_HUMAN", "assay": "BLI"}, "CCL13_HUMAN": {"target": "CCL13_HUMAN", "assay": "BLI"}, "CCL4L1_HUMAN": {"target": "CCL4L1_HUMAN", "assay": "BLI"}, "CCL16_HUMAN": {"target": "CCL16_HUMAN", "assay": "BLI"}, "CCL3L1_HUMAN": {"target": "CCL3L1_HUMAN", "assay": "BLI"}, "CCL21_HUMAN": {"target": "CCL21_HUMAN", "assay": "BLI"}, "CCL11_HUMAN": {"target": "CCL11_HUMAN (human, UniProt P51671 24-97)", "sequence (P51671 24-97)": "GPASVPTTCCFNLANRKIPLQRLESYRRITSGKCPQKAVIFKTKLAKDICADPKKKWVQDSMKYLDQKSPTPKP", "assay": "BLI"}, "CCL15_HUMAN": {"target": "T1, CCL15_HUMAN (human, UniProt Q16663 22-113)", "T1 chain": "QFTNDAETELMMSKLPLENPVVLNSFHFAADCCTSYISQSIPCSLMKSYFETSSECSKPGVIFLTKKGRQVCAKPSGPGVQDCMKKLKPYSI", "assay": "BLI"}, "CCL1_HUMAN": {"target": "T2, CCL1_HUMAN (human, UniProt P22362 24-96)", "T2 chain": "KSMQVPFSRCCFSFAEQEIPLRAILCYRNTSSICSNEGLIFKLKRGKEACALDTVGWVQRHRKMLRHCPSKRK", "assay": "BLI"}, "CCL3_HUMAN": {"target": "B3", "assay": "BLI"}, "CCL18_HUMAN": {"target": "B5", "assay": "BLI"}, "CCL5_HUMAN": {"target": "T3, CCL5_HUMAN (human, UniProt P13501 24-91)", "T3 chain": "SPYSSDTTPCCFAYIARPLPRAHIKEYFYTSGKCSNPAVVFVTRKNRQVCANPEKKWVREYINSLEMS", "assay": "BLI"}, "CCL19_HUMAN": {"target": "T4, CCL19_HUMAN (human, UniProt Q99731 22-98)", "T4 chain": "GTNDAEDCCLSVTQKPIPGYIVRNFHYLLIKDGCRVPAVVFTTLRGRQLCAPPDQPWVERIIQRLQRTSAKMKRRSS", "assay": "BLI"}, "CCL20_HUMAN": {"target": "CCL20_HUMAN (human, UniProt P78556 27-96)", "sequence (P78556 27-96)": "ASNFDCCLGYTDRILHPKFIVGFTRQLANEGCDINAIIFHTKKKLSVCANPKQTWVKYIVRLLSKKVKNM", "assay": "BLI"}, "CCL8_HUMAN": {"target": "T5, CCL8_HUMAN (human, UniProt P80075 24-99)", "T5 chain": "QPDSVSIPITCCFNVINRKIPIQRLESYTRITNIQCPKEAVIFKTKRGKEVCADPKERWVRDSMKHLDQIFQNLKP", "assay": "BLI"}, "CCL17_HUMAN": {"target": "T6, CCL17_HUMAN (human, UniProt Q92583 24-94)", "T6 chain": "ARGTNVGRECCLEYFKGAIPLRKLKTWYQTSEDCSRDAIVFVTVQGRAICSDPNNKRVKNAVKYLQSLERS", "assay": "BLI"}, "CCL4": {"target": "T7, CCL4 (human, UniProt P13236 24-92)", "T7 chain": "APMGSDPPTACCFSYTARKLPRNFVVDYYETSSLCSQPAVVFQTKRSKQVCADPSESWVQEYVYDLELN", "assay": "BLI"}, "CCL22_HUMAN": {"target": "B7", "assay": "BLI"}, "CCL27_HUMAN": {"target": "CCL27_HUMAN", "assay": "BLI"}, "CCL23_HUMAN": {"target": "CCL23_HUMAN", "assay": "BLI"}, "CCL24_HUMAN": {"target": "CCL24_HUMAN", "assay": "BLI"}, "EVASIN4 [3]": {"target": "EVASIN4", "assay": "-; previously described evasin"}, "EVASIN1": {"target": "EVASIN1", "assay": "-; previously described evasin"}, "CXCL3_HUMAN [4]": {"target": "CXCL3_HUMAN", "assay": "BLI", "remark": "listed apart in the source"}, "CXCL1_HUMAN [5]": {"target": "CXCL1_HUMAN", "assay": "BLI", "remark": "listed apart in the source"}, "CXCL8_HUMAN": {"target": "CXCL8_HUMAN (human, UniProt P10145 28-99)", "sequence (P10145 28-99)": "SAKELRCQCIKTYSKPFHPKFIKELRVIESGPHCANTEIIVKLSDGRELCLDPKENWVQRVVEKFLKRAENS", "assay": "BLI"}, "CCL2_HUMAN": {"target": "CCL2_HUMAN (human, UniProt P13500 24-99)", "sequence (P13500 24-99)": "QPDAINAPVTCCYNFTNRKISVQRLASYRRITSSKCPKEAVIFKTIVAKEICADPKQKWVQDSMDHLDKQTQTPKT", "assay": "BLI"}, "EVASIN4 [6]": {"target": "EVASIN4", "assay": "-; previously described evasin", "remark": "listed apart in the source"}},
  "note": "Where two headings read alike, the source gives them in different places.",
  "data": [
    {"binder": "B1", "values": [
      {"measurement": "Kd", "setting": "CXCL3_HUMAN [1]", "result": 270, "unit": "nM"},
      {"measurement": "Kd", "setting": "CXCL1_HUMAN [2]", "result": 24, "unit": "nM"}
    ]},
    {"binder": "B2", "values": [
      {"measurement": "Kd", "setting": "CCL14_HUMAN", "result": 0.816, "unit": "nM"},
      {"measurement": "Kd", "setting": "CCL7_HUMAN", "result": 8.66, "unit": "nM"},
      {"measurement": "Kd", "setting": "CCL13_HUMAN", "result": 0.788, "unit": "nM"},
      {"measurement": "Kd", "setting": "CCL4L1_HUMAN", "result": 35.4, "unit": "nM"},
      {"measurement": "Kd", "setting": "CCL16_HUMAN", "result": 0.926, "unit": "nM"},
      {"measurement": "Kd", "setting": "CCL3L1_HUMAN", "result": 9.61, "unit": "nM"},
      {"measurement": "Kd", "setting": "CCL21_HUMAN", "result": 6.54, "unit": "nM"},
      {"measurement": "Kd", "setting": "CCL11_HUMAN", "result": 6.03, "unit": "nM"},
      {"measurement": "Kd", "setting": "CCL15_HUMAN", "result": 5.05, "unit": "nM"},
      {"measurement": "Kd", "setting": "CCL1_HUMAN", "result": 21.3, "unit": "nM"},
      {"measurement": "Kd", "setting": "CCL3_HUMAN", "result": 5.3, "unit": "nM"},
      {"measurement": "Kd", "setting": "CCL18_HUMAN", "result": 0.00501, "unit": "nM"},
      {"measurement": "Kd", "setting": "CCL5_HUMAN", "result": 1.74, "unit": "nM"},
      {"measurement": "Kd", "setting": "CCL19_HUMAN", "result": 0.592, "unit": "nM"},
      {"measurement": "Kd", "setting": "CCL20_HUMAN", "result": 8.34, "unit": "nM"},
      {"measurement": "Kd", "setting": "CCL8_HUMAN", "result": 21.9, "unit": "nM"},
      {"measurement": "Kd", "setting": "CCL17_HUMAN", "result": 0.734, "unit": "nM"},
      {"measurement": "Kd", "setting": "CCL4", "result": 15.3, "unit": "nM"},
      {"measurement": "Kd", "setting": "CCL22_HUMAN", "result": 22.3, "unit": "nM"},
      {"measurement": "Kd", "setting": "CCL27_HUMAN", "result": 15.1, "unit": "nM"},
      {"measurement": "Kd", "setting": "CCL23_HUMAN", "result": 6.62, "unit": "nM"},
      {"measurement": "Kd", "setting": "CCL24_HUMAN", "result": 7.39, "unit": "nM"}
    ]},
    {"binder": "B3", "values": [
      {"measurement": "Kd", "setting": "EVASIN4 [3]", "result": 0.06, "unit": "nM"},
      {"measurement": "Kd", "setting": "EVASIN1", "result": 0.1, "unit": "nM"}
    ]},
    {"binder": "B4", "values": [
      {"measurement": "Kd", "setting": "CXCL3_HUMAN [4]", "result": 81, "unit": "nM"},
      {"measurement": "Kd", "setting": "CXCL1_HUMAN [5]", "result": 3.25, "unit": "nM"},
      {"measurement": "Kd", "setting": "CXCL8_HUMAN", "result": 4.6, "unit": "nM"}
    ]},
    {"binder": "B5", "values": [
      {"measurement": "Kd", "setting": "EVASIN4 [3]", "result": 0.03, "unit": "nM"},
      {"measurement": "Kd", "setting": "EVASIN1", "result": 3, "unit": "nM"}
    ]},
    {"binder": "B6", "values": [
      {"measurement": "Kd", "setting": "CCL14_HUMAN", "result": 0.43, "unit": "nM"},
      {"measurement": "Kd", "setting": "CCL7_HUMAN", "result": 0.514, "unit": "nM"},
      {"measurement": "Kd", "setting": "CCL13_HUMAN", "result": 0.419, "unit": "nM"},
      {"measurement": "Kd", "setting": "CCL4L1_HUMAN", "result": 0.827, "unit": "nM"},
      {"measurement": "Kd", "setting": "CCL16_HUMAN", "result": 1.28, "unit": "nM"},
      {"measurement": "Kd", "setting": "CCL3L1_HUMAN", "result": 1.4, "unit": "nM"},
      {"measurement": "Kd", "setting": "CCL11_HUMAN", "result": 3.43, "unit": "nM"},
      {"measurement": "Kd", "setting": "CCL15_HUMAN", "result": 159, "unit": "nM"},
      {"measurement": "Kd", "setting": "CCL3_HUMAN", "result": 1.08, "unit": "nM"},
      {"measurement": "Kd", "setting": "CCL18_HUMAN", "result": 0.209, "unit": "nM"},
      {"measurement": "Kd", "setting": "CCL2_HUMAN", "result": 12.2, "unit": "nM"},
      {"measurement": "Kd", "setting": "CCL5_HUMAN", "result": 1.47, "unit": "nM"},
      {"measurement": "Kd", "setting": "CCL19_HUMAN", "result": 14.4, "unit": "nM"},
      {"measurement": "Kd", "setting": "CCL8_HUMAN", "result": 8.79, "unit": "nM"},
      {"measurement": "Kd", "setting": "CCL17_HUMAN", "result": 7.66, "unit": "nM"},
      {"measurement": "Kd", "setting": "CCL4", "result": 5.82, "unit": "nM"},
      {"measurement": "Kd", "setting": "CCL22_HUMAN", "result": 3.97, "unit": "nM"},
      {"measurement": "Kd", "setting": "CCL27_HUMAN", "result": 38.9, "unit": "nM"},
      {"measurement": "Kd", "setting": "CCL23_HUMAN", "result": 5.58, "unit": "nM"},
      {"measurement": "Kd", "setting": "CCL24_HUMAN", "result": 6.54, "unit": "nM"}
    ]},
    {"binder": "B7", "values": [
      {"measurement": "Kd", "setting": "EVASIN4 [6]", "result": 0.43, "unit": "nM"}
    ]},
    {"binder": "B8", "values": [
      {"measurement": "Kd", "setting": "EVASIN4 [6]", "result": 69.6, "unit": "nM"}
    ]}
  ]
}
